Data from patent US9249224B2 (RINAT NEUROSCIENCE CORP., priority 2011, dated 2016).
“And” between values parts separate entries of the source, which are not always exact repeats. Equal entries are not always repeated.

Tests used:
[1] = biological target: T1, human GHR (Homo sapiens, UniProt P10912); assay: Biacore kinetics and affinity, captured IgG, human GHR analyte, 25° C.; format: binding; details: IgG immobilized by capture
T1 construct: his-tagged monomers of amino acids 31-235 of the extracellular domain of the human or cyno GHR
T1 sequence (P10912 49-253): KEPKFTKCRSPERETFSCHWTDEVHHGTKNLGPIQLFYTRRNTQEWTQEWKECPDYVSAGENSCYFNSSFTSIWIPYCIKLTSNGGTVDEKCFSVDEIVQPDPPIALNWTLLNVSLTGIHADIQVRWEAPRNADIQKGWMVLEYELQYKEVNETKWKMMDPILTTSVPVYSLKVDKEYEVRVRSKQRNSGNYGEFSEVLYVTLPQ
Protocol: (§1) The affinity of a mouse anti-GHR antibody, Ab13, to human and cyno GHR was measured on a Biacore™ 2000 biosensor (GE Lifesciences™, Piscataway N.J.). An anti-mouse Ig sensor surface was prepared using a Biacore™ CM5 chip and reagents from the Biacore™ mouse antibody capture kit (GE Lifesciences™, Catalog# BR-1008-38), using instructions provided by the manufacturer.
(§2) The kinetics assay was run using a kinetic titration methodology as described in Karlsson et al., 2006, Anal. Biochem 349, 136-147. The mouse antibody, Ab13, was captured onto downstream flow cells at 0.5 μg/mL at a flow rate of 5 μL/min for 1 minute, 2 minutes and 4 minutes on flow cells 2, 3 and 4 respectively. Flow cell 1 was used as a reference surface. […]
(§3) The affinities of a humanized GHR antibody, SS1, and a chimeric molecule comprising the Fab of Ab13 fused to a human Fc domain (“Ab13-hFc”) to human and cyno GHR was measured on a Biacore™ 2000 biosensor (GE Lifesciences™ Piscataway N.J.). […]
(§4) The kinetics assay was run using a methodology with varying dissociation times as described in Katsamba et al., 2006, Anal. Biochem 352, 208-221. […] After the analyte injection, dissociation was monitored for 30 minutes (for the 400 nM GHR cycle) or 30 seconds (all other cycles) followed by regeneration of all flow cells with two 30-second injections of 75 mM phosphoric acid. […]

[2] = tested on: cyno GHR; assay: Biacore kinetics and affinity, captured IgG, cyno GHR analyte, 25° C.; format: binding, cynomolgus monkey; details: IgG immobilized by capture
cyno GHR, sequence (as listed by the source): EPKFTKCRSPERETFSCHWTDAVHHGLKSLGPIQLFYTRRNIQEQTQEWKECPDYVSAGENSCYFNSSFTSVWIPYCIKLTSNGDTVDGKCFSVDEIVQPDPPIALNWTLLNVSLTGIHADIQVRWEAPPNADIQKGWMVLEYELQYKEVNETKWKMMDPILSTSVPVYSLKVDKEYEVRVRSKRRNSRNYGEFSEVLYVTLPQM
Protocol: as §1, §2, §3, §4

B1: SS1: humanized GHR antagonist antibody; VL SEQ ID NO: 7, VH SEQ ID NO: 8; hIgG2Δa heavy chain SEQ ID NO: 134, light chain SEQ ID NO: 135 (antibody)
heavy: EVQLVESGGGLVKPGGSLRLSCAASGFTFSDAWMDWVRQAPGKGLEWVAEIRSKANYHATYYAESVKGRFTISRDDSKNTLYLQMNSLKTEDTAVYYCTLIRDYWGQGTLVTVSSASTKGPSVFPLAPCSRSTSESTAALGCLVKDYFPEPVTVSWNSGALTSGVHTFPAVLQSSGLYSLSSVVTVPSSNFGTQTYTCNVDHKPSNTKVDKTVERKCCVECPPCPAPPVAGPSVFLFPPKPKDTLMISRTPEVTCVVVDVSHEDPEVQFNWYVDGVEVHNAKTKPREEQFNSTFRVVSVLTVVHQDWLNGKEYKCKVSNKGLPSSIEKTISKTKGQPREPQVYTLPPSREEMTKNQVSLTCLVKGFYPSDIAVEWESNGQPENNYKTTPPMLDSDGSFFLYSKLTVDKSRWQQGNVFSCSVMHEALHNHYTQKSLSLSPGK
light: EIVLTQSPGTLSLSPGERATLSCTATSSVSSSYLNWYQQKPGQAPRLLIYSTSNLASGIPDRFSGSGSGTDFTLTISRLEPEDFAVYYCHQYHRSTPTFGGGTKVEIKRTVAAPSVFIFPPSDEQLKSGTASVVCLLNNFYPREAKVQWKVDNALQSGNSQESVTEQDSKDSTYSLSSTLTLSKADYEKHKVYACEVTHQGLSSPVTKSFNRGEC
modifications: Humanized and/or affinity matured antibody sequence
[1]
  ka: 77000 M⁻¹ s⁻¹ and 74000 M⁻¹ s⁻¹
  kd: 6.4e-05 s⁻¹ and 7.7e-05 s⁻¹
[2]
  ka: 89000 M⁻¹ s⁻¹ and 81000 M⁻¹ s⁻¹
  kd: 0.00011 s⁻¹ and 0.0001 s⁻¹
